“Also recorded” adds a separate entry of the source.
Experiments:
[1] = target: Cdk5/P35 (Homo sapiens, UniProt Q00535); test: In vitro kinase (pad) assay of active Cdk5/P35 with histone H1 as substrate; assay type: biochemical; conditions: 0.7 μM P5
Description: Kinase assays were performed as previously described (Veeranna, et al., J Neurosci 18(11), 4008-4021, 1998). Briefly, 7 days in culture (7 DIC) primary rat cortical neurons were infected with P25, P35, Cdk5 wild-type, dominant negative-Cdk5 and P5 using the lentiviral gene delivery as described earlier. Cdk5 was immunoprecipitated using the polyclonal C8 antibody overnight at 4° C. and immunoglobulin isolated using Protein A sepharose beads for 2 hours at 4° C. Immunoprecipitates were washed three times with lysis buffer and then once with 1× kinase buffer containing 20 mM Tris-Cl pH 7.4, 1 mM EDTA, 1 mM EGTA, 10 mM MgCl2, 10 mM sodium fluoride and 1 mM sodium orthovanadate. Endogenous Cdks were immunoprecipitated from HEK 293 cells using their respective antibodies and treated as above. […]
In a dose-dependent kinase assay the effective inhibitory concentration of P5 for both the Cdk5/P25 and Cdk5/P35 complexes was evaluated. […]
P5, a 24 amino acid peptide derived from Cdk5 regulator p35, was modified by conjugating it with TAT PTD at the C-terminal end and with FITC (using a GGG linker) at the N-terminus to produce a fluorescent (FITC-labeled) TFP5 (SEQ ID NO: 2) peptide. In a dose-dependent kinase assay the effective inhibitory concentration of TFP5 for both the Cdk5/P25 and Cdk5/P35 complexes was evaluated. […]

[2] = tested on: Cdk5/P35; test: Kinase assay of Cdk5 immunoprecipitates from cortical neurons, infected or endogenous Cdk5/P35; assay type: cell-based, rat; conditions: E-18 rat cortical neurons co-infected with P5
Description: (§1) Briefly, 7 days in culture (7 DIC) primary rat cortical neurons were infected with P25, P35, Cdk5 wild-type, dominant negative-Cdk5 and P5 using the lentiviral gene delivery as described earlier. Cdk5 was immunoprecipitated using the polyclonal C8 antibody overnight at 4° C. and immunoglobulin isolated using Protein A sepharose beads for 2 hours at 4° C. Immunoprecipitates were washed three times with lysis buffer and then once with 1× kinase buffer containing 20 mM Tris-Cl pH 7.4, 1 mM EDTA, 1 mM EGTA, 10 mM MgCl2, 10 mM sodium fluoride and 1 mM sodium orthovanadate. Endogenous Cdks were immunoprecipitated from HEK 293 cells using their respective antibodies and treated as above. […] ATP with 20 μg of histone H1 as the substrate. Phosphorylation was performed in a final volume of […] incubated at 30° C. for 60 minutes, stopped by the addition of 10% SDS sample buffer and heating at 95° C. for 5 minutes. Samples were separated by SDS-PAGE, gels were stained with Coomassie, destained, dried and exposed to autoradiography. In pad assays, 25 μl aliquots of the incubation mixture were placed on a Whatman p80 paper square, washed and dried and placed in a scintillation vial for counting.

[3] = target: T1, Cdk5/P35 (Rattus norvegicus, UniProt Q03114); test: as above; assay type: cell-based; conditions: cortical neurons infected only with P5, or uninfected treated with 20 μM roscovitine
T1 construct: endogenous in cells; host or cells: E-18 rat cortical neurons
Description: as §1

[4] = target: Cdk5/P25 (Homo sapiens, UniProt Q00535); test: Cdk5/P25 kinase assay after pre-incubation with β-tubulin; assay type: biochemical
Description: Tubulin polymerization was performed as detailed in a previous report (Hou et al., J. Biol. Chem., 282(26), 18666-18670, 2007). Briefly, active kinase Cdk5/P35 (2 ng/μL) or active Cdk5/P25 (1 ng/μL) were incubated with β-tubulin (enzyme: tubulin at 1:100) in the PEM buffer (80 mM PIPES, 2 mM MgCl2, 1 mM EGTA PH 7.0) supplemented with 1 mM GTP at 35° C. for 45 minutes. Following the incubation, Cdk5 kinase assays were performed with or without the addition of 0.45 μM or 0.90 μM P5.
To further explore this possibility, β-tubulin (which is enriched in neurons) was used to perform a study in vitro to mimic P35 interactions in cells. Cdk5/P35 and Cdk5/P25 active kinases were pre-incubated with β-tubulin (Cdk5 kinase:tubulin=1:100) respectively at 35° C. for 45 minutes to 1 hour under conditions that would promote tubulin polymerization, followed by a Cdk5 kinase assay with/without the addition of P5. […] Cdk5/P25 activity, however, was inhibited 60% after pre-incubation at the lower P5 concentration (0.45 μM) (FIG. 9B, lane 4 compared with lane 1) (p<0.01). […] On the other hand, P25, lacking the P10 domain, fails to bind these proteins, and P5 readily binds with Cdk5 in the Cdk5/P25 complex to inhibit activity.

Chain of Cdk5/P25 (Q00535 whole entry, species assumed): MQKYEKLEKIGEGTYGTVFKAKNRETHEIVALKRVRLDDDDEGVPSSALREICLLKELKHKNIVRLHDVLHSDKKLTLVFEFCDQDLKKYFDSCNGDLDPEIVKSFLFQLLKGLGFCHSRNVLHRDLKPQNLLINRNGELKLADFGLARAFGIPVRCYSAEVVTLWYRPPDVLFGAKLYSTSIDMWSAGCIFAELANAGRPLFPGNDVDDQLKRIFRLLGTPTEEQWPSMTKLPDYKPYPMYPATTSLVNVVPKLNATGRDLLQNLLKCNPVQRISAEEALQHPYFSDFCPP
T1 sequence (Q03114 whole entry): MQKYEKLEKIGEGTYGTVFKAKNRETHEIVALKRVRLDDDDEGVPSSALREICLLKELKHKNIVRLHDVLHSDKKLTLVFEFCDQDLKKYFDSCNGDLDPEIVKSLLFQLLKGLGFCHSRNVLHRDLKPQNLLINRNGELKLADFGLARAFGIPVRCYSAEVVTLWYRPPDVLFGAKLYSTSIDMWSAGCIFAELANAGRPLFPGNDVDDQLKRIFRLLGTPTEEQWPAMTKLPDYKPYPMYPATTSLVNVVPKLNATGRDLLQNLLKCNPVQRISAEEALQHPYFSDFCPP
T1 sequence (P61810 2-307 partner): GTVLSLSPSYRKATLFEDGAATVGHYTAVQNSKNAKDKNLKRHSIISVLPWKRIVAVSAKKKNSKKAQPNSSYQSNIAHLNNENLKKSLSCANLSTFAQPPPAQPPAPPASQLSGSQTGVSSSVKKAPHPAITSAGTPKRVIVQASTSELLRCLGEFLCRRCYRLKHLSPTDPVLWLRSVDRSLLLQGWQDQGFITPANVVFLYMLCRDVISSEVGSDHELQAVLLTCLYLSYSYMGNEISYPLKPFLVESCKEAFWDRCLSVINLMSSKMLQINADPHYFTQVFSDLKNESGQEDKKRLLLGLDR
Chain of Cdk5/P35 (Homo sapiens, UniProt Q00535) (Q00535 whole entry, species assumed): as the sequence (Q00535 whole entry, species assumed) above

- Inhibition of Cdk5/P35 activity [1]: approximately 70%
- Inhibition of Cdk5 activity in neurons co-infected with Cdk5/P35 [2]: 10-20%
- Effect on endogenous Cdk5/P35 activity [3]: no reduction in activity
Substance: P5: 24 residue peptide derived from Cdk5 activator P35 (K254-A277 of SEQ ID NO: 16); Cdk5 inhibitory peptide (KEAFWDRCLSVINLMSSKMLQINA; listed as Homo sapiens)
- Inhibition of Cdk5/P25 activity with unpolymerized tubulin (no pre-incubation) ([4]; 0.45 μM P5): P5 inhibits both kinases equally; also recorded: inhibited both Cdk5/P35 and Cdk5/P25 activities equally; also recorded: inhibited both complexes equally
- Inhibition of Cdk5/P25 activity pre-incubated with polymerized tubulin ([4]; 0.9 μM P5): both kinase complexes are inhibited equally; also recorded: both Cdk5 complexes were inhibited
